Experimental data: article PMC3554717

Biological target: endogenous CSK (Jurkat) (UniProt P41240)
Experiment: GST pull-down, CSK immunoblot densitometry
Conditions: Jurkat cell lysates (3×10^8 cells divided into five tubes); GST alone lane 0.00; parent: 84.98

response (arbitrary units): -0
Substance: LYP P1 motif (Arg620) fused to GST R620W
